Results as given in article PMC6755812.

Tests used:
[1] = biological target: bovine pancreas insulin (bovine)
[2] = biological target: Escherichia coli thioredoxin reductase (E. coli) (UniProt P0A9P4)
[3] = biological target: Escherichia coli peptide methionine sulfoxide reductase A (E. coli) (UniProt P0A744)
Cys32 = Cys32 (UniProt position 33, FWAEWCGPCKM); settings: reduced (dithiol) form implied; not stated explicitly; cited from earlier work

Chain of Escherichia coli thioredoxin (P0AA25 2-109): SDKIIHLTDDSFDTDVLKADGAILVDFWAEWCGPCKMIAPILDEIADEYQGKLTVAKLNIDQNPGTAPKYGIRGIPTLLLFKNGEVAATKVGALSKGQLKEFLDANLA
Chain of Escherichia coli peptide methionine sulfoxide reductase A (E. coli) (P0A744 2-212): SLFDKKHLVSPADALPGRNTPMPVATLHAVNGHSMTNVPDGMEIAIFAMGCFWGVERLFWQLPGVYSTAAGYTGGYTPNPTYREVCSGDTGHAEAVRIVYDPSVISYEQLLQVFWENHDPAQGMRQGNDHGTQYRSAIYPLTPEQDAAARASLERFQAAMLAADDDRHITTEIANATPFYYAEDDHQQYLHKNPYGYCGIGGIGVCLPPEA
Chain of Escherichia coli thioredoxin reductase (E. coli) (P0A9P4 2-321): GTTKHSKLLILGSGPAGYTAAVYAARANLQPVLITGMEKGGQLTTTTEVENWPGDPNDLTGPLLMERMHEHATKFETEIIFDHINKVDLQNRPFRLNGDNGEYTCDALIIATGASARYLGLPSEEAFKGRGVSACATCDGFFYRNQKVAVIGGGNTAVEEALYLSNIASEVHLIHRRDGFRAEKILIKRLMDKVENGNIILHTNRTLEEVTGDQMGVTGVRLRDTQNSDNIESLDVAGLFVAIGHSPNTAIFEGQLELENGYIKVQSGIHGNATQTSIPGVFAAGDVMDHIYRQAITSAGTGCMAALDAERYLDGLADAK

Specific insulin reductase activity (0.13 mM insulin, 1 mM DTT, 0.5-2.0 μM Trx, onset of aggregation at OD650, pH 7.0, 25 °C) [1] [min^−1 μM^−1] | Catalytic activity of S-MetO reduction by NADPH (Vi/[Trx]) in the reconstituted NADPH/TrxR/Trx/MsrA chain (4.5 μM TrxR, 4.5 μM MsrA, 0.1-1.0 μM Trx, pH 7.0, 25 °C) [2] [min^−1] | kcat/Km: activity as substrate of TrxR (ecTrxR-catalysed reduction of Trx by NADPH, DTNB-coupled, 0.04 μM TrxR, 0.1-300 μM Trx, pH 7.0, 25 °C) [2] [M^−1 s^−1] | k1: rate constant of Trx–MsrA mixed disulfide formation (stopped-flow fluorescence, 1 μM oxidized MsrA, 5-100 μM reduced Trx, pH 7.0, 25 °C) [3] [M^−1 s^−1] | k2: rate constant of mixed disulfide dissociation to reduced MsrA and oxidized Trx (stopped-flow fluorescence, pH 7.0, 25 °C) [3] [s^−1] | Substance | pKa (Cys32)
0.0452 | 14.6 | 130000 | 716000 | 1.75 | Archaeal–Eukaryotic Common Ancestor thioredoxin (enzyme) | –
0.0512 | 66.9 | 8.81e+06 | 1.01e+06 | 2.89 | Escherichia coli thioredoxin (from UniProt P0AA25 2-109) (enzyme) | –
0.0224 | – | – | 45000 | 3.47 | Last Animalia and Fungi Common Ancestor thioredoxin (enzyme) | –
0.0532 | 9.13 | 118000 | 518000 | 1.54 | Last Archaeal Common Ancestor thioredoxin (enzyme) | –
0.0781 | 11.7 | 117000 | 498000 | 2.69 | Last Bacterial Common Ancestor thioredoxin (enzyme) | –
0.104 | 36.9 | 7.6e+06 | 436000 | 2.93 | Last Common Ancestor of the Cyanobacterial, Deinococcus, and Thermus group thioredoxin (enzyme) | –
0.0738 | 0.29 | – | 40700 | 3.51 | Last Eukaryotic Common Ancestor thioredoxin (enzyme) | –
0.0645 | 25.8 | 718000 | 369000 | 1.65 | Last γ-Proteobacteria Common Ancestor thioredoxin (enzyme) | –
– | – | – | – | – | Thioredoxin 1 (ecTrx) (Escherichia coli) | 7.1
